22 sequences from the DeepSol protein solubility set can be followed below.

The nature of this data set: soluble on expression in E. coli; label from the status in PepcDB or PDB records.
For the sequence “MAHHHHHHMASYQYFSYIDLYKVNNVNLDPFTEVFNDKFYLRYIYKWPHMNIITKEIDDHTSGYILGKEEGFGQDYHGHVTALSIEEDSRRTGKGVDLMTEFEKITQIIHKGNFVDLFVRVSNNPAINMYKKLGYVINEEINNYYCGNESALDMRKYLDITNS”, the “soluble on expression in E. coli” value is listed as “soluble”. Then “MSKFPVPLRTIGGLRPSTTAAISAANIGFTQSSRALSTGAAAKSSGLVGQVARQYPNAAAFSIKQVRLYSSGNLPKHNRVALPALSPTMELGTVVSWQKKEGDQLSEGDLLCEIETDKATMGFETPEEGYLAKILIQEGSKDVPIGKLLCIIVDNEADVAAFKDFKDDGASSGGSAPAAEKAPEPAKPAASSQPSPPAQMYQAPSVPKSAPIPHSSSGRVSASPFAKKLAAENGLDLSGVSGSGPGGRILASDLSQAPAKGATSTTTQAVSGQDYTDIPLSNMRKTIAKRLTESKSTIPHYYLTSEIQLDTLLQVREKLNGLLAKGTSGQATKISINDFIIKASALACQRVPEANSYWMDSFIRENHHVDVSVAVSTPAGLITPIIFNAHAKGLATIASEIVELAQRAREGKLQPHEFQGGTFTVSNLGMFGSVSDFTAIINPPQSCILAIGGASDKLVPDEAEGYKKIKTMKVTLSCDHRTVDGAVGAVWLRHFKEFLEKPHTMLL”, with “not soluble”; and “FNRRFILPELREAVRSVSADIVFLQEVHGEHHSHARRVKDWPTISQYEFLADSMWSDFAYGRNAVYPDGDHGNALLSKYPIIQHENLDVSIDGTEQRGLLHCILQVPDHGQVHAVCVHLGLFESHRRQQLKLLAQLMDRLPEGAPVIVAGDFNDWRQRADALLQGTGLHEVFVQRFGAPAKSFPARWPLLRLDRIYVRNATSHRPKVLSSRPWSHLSDHAPLAVEVTL”, with “not soluble”; and “MSGMWLWASVSPESTGIKMSESFAELFEESLKTLNLQPGAIITGIVVDIDGDWVTVHAGLKSEGVIPLEQFYNEAGELTIKVGDEVHVALDAVEDGFGETKLSREKAKRAECWIVLEAAFAAEEVVKGVINGKVKGGFTVDVNGIRAFLPGSLVDVRPVRDTTHLEGKELEFKVIKLDQKRNNVVVSRRSVLEAENSAEREALLETLQEGQQVKGIVKNLTDYGAFVDLGGIDGLLHITDMAWKRIKHPSEIVNVGDEVDVRVLKFDRERNRVSLGLKQMGEDPWVAITARYPEGTRVQARVTNLTDYGCFAELEEGVEGLVHVSEMDWTNKNIHPSKVVQVGDEVEVMVLDIDEERRRISLGIKQCKSNPWEDFSGQFNKGDKITGTIKSITDFGIFIGLDGGIDGLVHLSDISWNETGEEAVRRFKKGDELETVILSVDPERERISLGIKQLEDDPFSNFVAVNDKGAIVKGIVKEVDAKGAIVTLADDIEATLKASEISRDRVEDARNVLKEGEEIEAKIISVDRKSRVISLSIKSKDDAEEREAIQSLKNAPEAAADTTMAALLREAMAKQNLEHHHHHH”, with “soluble”. The result for “MTNMDNYCVIMGGGIGSRFWPFSRKTLPKQFLDFFGTGRSLLQQTFDRFQKVIPTENILIVTNAMYADLVKEQLPELDEKQILLEPARRNTAPCIAWAAYHIRALNPNANIVVAPSDHLILKEEEFRAAIIKGLEFVSHSEKLLTLGIKPNRPETGYGYIQIDEPTGDGFYKVKTFTEKPELELAKVFVESGEFYWNSGLFMWNVNTIIKAAEILLPELVSKLAPGKNIYATDKEKAFIEENFPACPNVSIDFGIMEKADNVYVSLGDFGWSDLGTWGSLYDLSERDREGNVTLKSHSLIYNGKDNMIVLPKGKLAVIDGLEGYLIAESDNVLLICRKDEEHSIRKYVNDAQMQLGDDFI” reads “not soluble”; that for “SLGEMKRAAIIIDDFGGDVKGVDDFLTGEIPVTVAVMPFLEHSTKQAEIAQAAGLEVIVHMPLEPKKGKISWLGPSGITSNLSVGEVKSRVRKAFDDIPYAVGLNNHMGSKIVENEKIMRAILEVVKEKNAFIIDSGTSPHSLIPQLAEELEVPYATRSIFLDNTHSSRKEVIKNMRKLAKKAKQGSEPIGIGHVGVRGDETYAGIRSMLDEFQAESIQLVPVSQLLPSPIEEDHNKFWQQPFQAKE”, “soluble”. The result for “MEKIFKVTSDSGIHARPATLLVNTASKFGSDINLEYNGKNVNLKSIMGVMSLGIQQNAEIKITANGDDAAQALAAIEETMKNEGLGE” reads “not soluble”; that for “MAGQEHHYAVQVKWTGNRGKGTSGYRDYERDYTISTAGKADITGSSDPAFRGDPSRWNPEDLLVASLSACHKLWYLHFCSVNGIIVEDYVDNAEGTLVMEKDGAGQFSEVVLKPVITISKGDPARADELHHDAHDKCFIARSVNFPIRVQGTVKVV”, “not soluble”.

On to “MSLDSKIDILIVVNMFLTGFDSKVLNTLYVDKNLMYHDLIQAYSRTNRVEKESKPFGKIVNYRDLKKETDDALRVFSQTNDTDTILMRSYEEYKKEFMDAYRELKMIVPTPHMVDDIQDEEELKRFVEAYRLLAKIILRLKAFDEFEFTIDEIGMDEQENEDYKSKYLAVYDQVKRATAEKNKVSILNDIDFEIEMMRNDTINVNYIMNILRQIDLEDKAEQREGHHHHHH”, for which the “soluble on expression in E. coli” value was “soluble”. The result for “MVKLFIGNLPREATEQEIRSLFEQYGKVLECDIIKNYGFVHIEDKTAAEDAIRNLHHYKLHGVNINVEASKNKSKASTKLHVGNISPTCTNQELRAKFEEYGPVIECDIVKDYAFVHMERAEDAVEAIRGLDNTEFQGKRMHVQLSTSRLRTAPGMGDQSGCYRCGKEGHWSKECPVDRTGRVADFTEQYNEQYGAVRTPYTMGYGESMYYNDAYGALDYYKRYRVRSYEAVAAAAAASAYNYAEQTMSHLPQVQSTTVTSHLNSTSVDPYDRHLLPNSGAAATSAAMAAAAATTSSYYGRDRSPLRRAAAMLPTVGEGYGYGPESELSQASAATRNSLYDMARYEREQYVDRARYSAF” reads “soluble”.

For the sequence “TQQPQQDEMPSPTFLTQVKESLSSYWESAKTAAQNLYEKTYLPAVDEKLRDLYSKSTAAMSTYTGIFTDQVLSVLKGEE”, the “soluble on expression in E. coli” value is given as “soluble”. The result for “MLNEFDQYLHERYLSGKARKDRWYWNNSIQRGRSTAVRENWQWKPAVAYCRYADDFVLIVKGTKAQAEAIREECRGVLEGSLKLRLNMDKTKITHVNDGFIFLGHRIIRKRSRYGEMRVVSTIPQEKARNFAASLTALLSGNYSESKVDMAEQLNRKLKGWAMFYQFVDFKAKVFSYIDRVVFWKLAHWLARKYRTGIASLMRWWCKSPKPGQSKTWVLFGKTNHGKLSGEILYRLVGQGKKLFRWRLPEGNPYLRTETRNTYTSRFTEVAMAFASI” reads “not soluble”. “ALSRYLLTESPAVCVLSGERGVGTTTLLNRILNKVKNATPIYINCPYDGYSALLPELAKQLGLDEESSERDILQYLRNSDTCYLLAFDSAQRLVKPKVNGLADLMKLTNLLRRARKSHRVVLAIEKSCWRFIDRARGERLLFDLVTFMP”: the “soluble on expression in E. coli” value was “not soluble”. The result for “MSNYTWKQADIQTLISFYETLGEEINPKVQKVQQNSEANSFSEKAKKFGLLDLPIYSKCVDSSQLIAESASRVYHDAKEYMNNGSATEAELYRFVSSILKEVLEPIFNPKEIRNVLKGLITSLVDSRSRDEEIGSDIEKNVKYEVVRFLPESPPNFPGFNDNVSRSITNFIGYFALHTIRHHCYVNFGVDGELKFYQRNMYKKAFDDLRVNKAKPTVSVKPEASLKREPKAETPTLTRVKPEIRNDSDEDFCEIIEPAVKKSKTRQTSESNAKGGKELKDFPEKYMLEDLDKDDLPMNFKTKFRKLVEQNQMLRDEINDYKELIQLKIAEKKQRMG” reads “not soluble”. The result for “MKNILVFLMLGVMLSALQELRYPSGYRVNGSRVFYTYIELTEIDMTTFEILNERYAKDKNAVYYEGKVIVNVDPEDFELLGDFFGKTKNNIYIGNTIIKDADINSFELLGHSRSRDKNHVFFADKILKNADPATYIVFNNKYAKDKNHVYFWDKEIENADAPTFEVLNGEYGKDKNRVYYNSRVVRKADPATFRILEGPFSKDKNYVYVTGEIFEKADVKTFQTLGDYGYAKDKRYVYRYNKILEGEKPADFLPPPQPVIMY” reads “not soluble”; that for “GDNDAIYYPVGDVDIERGGPALEVGEEDVLVARSFNEEDYVLDTIAQYPNDPTLGKLTFMIDLKNQQKDQNVADFNGVGKSKLTMSLGYKDGNYPSESQVPIYTSQDVTAKYAVKLRLKGELLVSGDEWMIDYVYAQLASLFQPYPPANFPEVFMCKGGMKLGTFDSFRRTCTFDITYDRSDLSFSQLYFNLFINLAGQKRENRVRLRIDKESYFELYEQSEEM”, “soluble”; that for “SKRVNSCVKDEEHVLEELETEGERQLKSLLQHQLDTSVSIEECVSKKKSFAPGTMYKPFGKEAAGTMTLSQFQTLHEKDQETASLRELGLNETEILIWKSHVSGEKRTKLRATPEAIQKRLEDIKERISERQRILCLPQRFSKSKQLTRREMEIEKSLFQGTDRHSFLKALYYQDEPPKKNKGDPMNNLEHFYRETIMKKRLEEFQLLRGESFACHSLVSAASVSGSGTAEKPSLLQDKGKQAAQGKGPRLHVAKLIDFPTEQYWTGPKTLKQPIEFIPEDEIQRNRLSEEEIRNIPMFSSYNPGEPNKVLYLKNLSPRVKERDLISLFARFQEKKGPPIQFRMMTGRMRGQAFLTFPNKDIAWQALHQINGYKLYGKILVIEFAKSKKQQSAVQRSSLITSAPDGRTEINGS”, “soluble”.

As for “MSLKNTGYILALCLTASGHVLAHDVWITGKQAENNVTAEIGYGHNFPSKGTIPDRRDFFENPRLYNGKETITLKPASTDYVYKTESASKDNGYVLSTYMKPGYWSRTSSGWKPVSREGRNDVAYCEFVTKYAKSFIPGEQQMPAQLYQSPTGHELEIIPLSDISRFSENVKLKVLYKTSPLAGAIMELDSVSYLTSSRHTHAVEHKHPVHKAELTFVTNEDGIVTVPSLHIGQWLAKVQNKKSFQDKSLCDETVDVATLSFSRNEGHHHHHH”, the “soluble on expression in E. coli” value is recorded as “soluble”. Then “MAKETVCVTGANGFIGSWIIRTLIEKGYTKIHASIYPGSDPTHLLQLPGSDSKIKIFEADLLDSDAISRAIDGCAGVFHVASPCTLDPPVDPEKELVEPAVKGTINVLEAAKRFNVRRVVITSSISALVPNPNWPEKVPVDESSWSDLDFCKSRQKWYPISKTLAEKAAWEFSEKHGTNIVTIHPSTCLGPLLQPNLNASCAVLLQLLQGSTETQEHHWLGVVHVKDVAKGHVMLFETPDASGRFLCTNGIYQFSEFAALVSKLFPEFAVHKFDKETQPGLTSCNDAAKRLIELGLVFTAVEDAVKETVQSLRDKGFL”, with “soluble”; and “HVYILGKIPSPLTLIKAFADVRPSFVIMVPLIIEKLYHKAIAPKIKTPLIKFLLRLPVLKKVIHKSIRSKLIESFGGNFRQIIIGGAALNDEVAHFLYRIGFPLTVG”, with “not soluble”; and “MPKGSGKVIAQNKKAFHDYFIEETYEAGLVLQGTEIKSIRAGRVNLKDAFARVHNGEVWVHNMHISTYEQGNRFNHDPLRTRKLLLHKKEIEKLAGASKETGYALVPVRIYLKNGFAKMALGLAKGKKQYDKRHDLKEKEAKREIARAFRDRQKM”, with “not soluble”. Then “MGNALVKKEPPPPVVLVPPLFDYPPLSARTRMLESSYNLLFGKLALRCLFEDYFEEANRFTGKFLLKPTDDPHVDLVASVSGAVDGRVEGDFVGNAEFRWQSDVDDPHTFVDLSVSTSNPVLLMRSSAYYPKYGIGAFAVYPLISKITGKSSEEYRIMGLRYGSTNLSVGATVTPFSANNELPKHAWLVSKMGSLTVGVQYEPLHGSKDLAKYTDPRNWSCAAGYGVGSQSPLTPSFNIGIELARSSQFIASFYQHVVVQRRVQNPFEENQVVGITNYIDFGFELQSRVDDSKTPPNAPDSLLQVAASWQANKNFLLKGKVGAHSSTLSLAFKSWWKPSFAFNISATTNHRTGNVQCGFGLRVDNLREASYQRADPNFVMLTPNKEHLAEGIVWKMGKRPMYQADVDAENFSELPKELRPSQKIL”, with “soluble”.
